The values below come from PMC3977970.

This assay has as its target T1, GST-PTPMT1 (human) (UniProt Q8WUK0).
T1 sequence: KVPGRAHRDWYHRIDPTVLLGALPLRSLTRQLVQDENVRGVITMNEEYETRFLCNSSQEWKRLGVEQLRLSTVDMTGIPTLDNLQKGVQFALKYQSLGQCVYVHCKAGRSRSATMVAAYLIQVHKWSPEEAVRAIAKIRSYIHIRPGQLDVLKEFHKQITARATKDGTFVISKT

For the substance “FLAG-MK-STYX (from UniProt Q9Y6J8-1 2-313) (natural protein)”, the reduction of PTPMT1 phosphatase activity towards OMFP, compared to FLAG protein alone; MK-STYX incubated with GST-PTPMT1 at 1:1 (51%) to 2:1 (60%) mass ratio is 60%.
